Paper PMC6764681

Key:
[1] = molecular target: Man5-enriched stabilized CH505TF.N279K.G458Y.SOSIP.664 Env trimer (made in 293S GnT1- cells) (HIV-1 clade C, strain CH505 transmitted/founder | HIV-1 clade A, strain BG505) (UniProt Q2N0S6)
[2] = molecular target: Man5-enriched CH505TF.G458Y Env on pseudovirus produced in 293S GnT1- cells (HIV-1 clade C, strain CH505 transmitted/founder); settings: scale: fold less susceptible than the Man5-enriched double mutant
[3] = molecular target: CH505TF.N279K.G458Y Env on pseudovirus produced in 293T cells (not Man5-enriched) (HIV-1 clade C, strain CH505 transmitted/founder)
[4] = molecular target: Man5-enriched CH505TF.N279K Env on pseudovirus produced in 293S GnT1- cells (HIV-1 clade C, strain CH505 transmitted/founder); settings: scale: fold less susceptible than the Man5-enriched double mutant
[5] = molecular target: Man5-enriched stabilized CH505TF.N279K.G458Y.SOSIP.664 Env trimer (made in 293S GnT1- cells) (HIV-1 clade C, strain CH505 transmitted/founder | HIV-1 clade A, strain BG505) (UniProt Q2N0S6); test: cryo-EM structure; trimer at 1 mg/ml incubated with 4-5-fold molar excess of CH235 UCA2 Fab for 30-60 minutes, 0.085 mM dodecyl-maltoside; C3 symmetry, 4.2 Å
[6] = molecular target: CH235 UCA2 (unmutated common ancestor of the CH235/CH235.12 lineage), IgG; test: SPR; settings: apparent KD, average of two measurements
[7] = molecular target: CH235 UCA2 (unmutated common ancestor of the CH235/CH235.12 lineage), IgG (human); test: SPR; Biacore 3000; CH235 UCA2 antibody captured (200-350 RU) by goat anti-human IgG Fc immobilised on a CM3 chip; SOSIP trimers 50-750 nM in HBS-EP+ injected 5 min at 50 ul/min, 10 min dissociation; 1:1 Langmuir model with local Rmax; apparent KD, average of two measurements
[8] = trimer produced in Freestyle293 (293F) cells, parent: NB
[9] = trimer produced in 293S GnT1- cells

Sequence of CH235 UCA2 (unmutated common ancestor of the CH235/CH235.12 lineage), IgG (human) (heavy, as listed by the source, chain 1 of 2): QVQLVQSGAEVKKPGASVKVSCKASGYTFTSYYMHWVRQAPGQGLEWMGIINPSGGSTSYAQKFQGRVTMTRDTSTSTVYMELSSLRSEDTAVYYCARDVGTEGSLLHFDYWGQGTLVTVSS
Sequence of CH235 UCA2 (unmutated common ancestor of the CH235/CH235.12 lineage), IgG (human) (light, as listed by the source, chain 2 of 2): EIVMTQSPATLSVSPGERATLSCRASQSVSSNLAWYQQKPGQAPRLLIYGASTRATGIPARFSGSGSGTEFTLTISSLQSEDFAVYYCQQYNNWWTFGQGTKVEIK

## CH235 UCA2 (unmutated common ancestor of the CH235/CH235.12 lineage), IgG (antibody)
[1]
  IC50 of neutralization of Man5-enriched (293S GnT1-) CH505TF.N279K.G458Y Env-pseudotyped virus in TZM-bl cells (full-length Env on virus, not the SOSIP): 0.04 µg/mL
[2]
  neutralization in TZM-bl cells: fold less susceptible than the Man5-enriched double mutant: 973
[3]
  IC50 of neutralization of CH505TF.N279K.G458Y Env-pseudotyped virus that was not Man5-enriched, in TZM-bl cells: 9.2 µg/mL
[4]
  neutralization in TZM-bl cells: fold less susceptible than the Man5-enriched double mutant: 92

## CH235 UCA2 Fab
[5]
  stoichiometry N (Fabs per Env trimer): 3

## CH505TF SOSIP.664 v4.1 (293F) N279K
[6]; [8]
  Kd: 154 nM

## CH505TF SOSIP.664 v4.1 (293F) N279K; G458Y
[6]; [8]
  Kd: 83 nM

## Man5-enriched stabilized CH505TF.N279K.G458Y.SOSIP.664 Env trimer (made in 293S GnT1- cells) (from UniProt Q2N0S6 1-860) (complex)
[7]
  Kd: 9 nM

## Man5-enriched stabilized parental CH505TF SOSIP.664 Env trimer (made in 293S GnT1- cells) (from UniProt Q2N0S6) G458Y
[6]; [9]
  Kd: 996 nM

## Man5-enriched stabilized parental CH505TF SOSIP.664 Env trimer (made in 293S GnT1- cells) (from UniProt Q2N0S6) N279K
[6]; [9]
  Kd: 28 nM
